This note sets out measurements from publication doi:10.1101/2025.03.12.642038, “Structural, biophysical and biological analysis and characterisation of IRF4 DNA-binding domain mutations associated with multiple myeloma”.

What is called Kd is the free concentration of one partner at which half of the binding sites on the other are occupied at equilibrium, for simple one-to-one binding.

Substitutions are numbered along the chain they refer to.

What all share (test): SPR two-state kinetic; FP: PBS + 0.05% Tween20, 5 nM DNA, 1 h, room temperature; SPR: Biacore S200, SA chip, protein 0.1-4500 nM, running buffer not given in material; errors are SD
What all share (details): protein: recombinant; tags: N-terminal His8-linker-His8-TEV, cleaved; label: 3' biotin; hairpin, TTTT loop
A general note: Surface plasmon resonance follows binding to a sensor surface in real time, without labels.

Series [1] concerns the target T1, IRF4 DBD K59N (Homo sapiens, UniProt Q15306 20-132, K59N).
T1 sequence: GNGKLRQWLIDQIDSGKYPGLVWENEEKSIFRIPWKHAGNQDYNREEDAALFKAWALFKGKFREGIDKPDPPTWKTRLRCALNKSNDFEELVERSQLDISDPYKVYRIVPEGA

Series [2] has as its target T2, IRF4 DBD D117A (Homo sapiens, UniProt Q15306 20-132, D117A).
T2 sequence: T1 sequence with N40K, D98A

Series [3] addresses T3, IRF4 DBD K123R (Homo sapiens, UniProt Q15306 20-132, K123R).
T3 sequence: T1 sequence with N40K, K104R

Series [4] has as its target T4, IRF4 DBD wild-type (Homo sapiens, UniProt Q15306 20-132).
T4 sequence: T1 sequence with N40K

The target in series [5] is T5, IRF4 DBD S114N (Homo sapiens, UniProt Q15306 20-132, S114N).
T5 sequence: T1 sequence with N40K, S95N

Series [6] concerns the target T6, IRF4 DBD D106Y (Homo sapiens, UniProt Q15306 20-132, D106Y).
T6 sequence: T1 sequence with N40K, D87Y

Series [7] has as its target T7, IRF4 DBD T95A (Homo sapiens, UniProt Q15306 20-132, T95A).
T7 sequence: T1 sequence with N40K, T76A

For series [8], the target named is T8, IRF4 DBD S114R (Homo sapiens, UniProt Q15306 20-132, S114R).
T8 sequence: T1 sequence with N40K, S95R

Series [9] addresses T9, IRF4 DBD C99R (Homo sapiens, UniProt Q15306 20-132, C99R).
T9 sequence: T1 sequence with N40K, C80R

In series [10] the target is T10, IRF4 DBD K59R (Homo sapiens, UniProt Q15306 20-132, K59R).
T10 sequence: T1 sequence with N40R

In the case of CTTGGTTTCACTTCCTGCGTTTTCGCAGGAAGTGAAACCAAG (structured_DNA) [IRE hairpin (biotin)], the Kd came out at 107 ± 133 nM in series [1]; 293 ± 213 nM in series [2]; 1110 ± 341 nM in series [3]; 187 ± 143 nM in [4]; 145 ± 151 nM in [5]; 135 ± 121 nM in [6]. Besides, the Kd came out at 305 ± 174 nM in [7], 49 ± 26 nM in [8], 660 ± 317 nM in series [9] and 460 ± 429 nM in series [10].
